Results published in patent publication US10428140B2, “Anti-EphA4 antibody” (EISAI R&D MANAGEMENT CO., LTD., priority 2015, dated 2019).

Columns and labels:
[1] = biological target: T1, mouse EphA4 (binding to mouse Ephrin A1) (Mus musculus, UniProt Q03137); assay: Mouse EphA4-mouse ligand binding inhibition ELISA (Ephrin A1-Fc); conditions: mouse EphA4-mouse ligand binding inhibition
T1 construct: made in house; host or cells: HEK293EBNA cells
Method: Antibody A obtained in Example 1 was evaluated for its inhibitory activity against the binding between mouse EphA4 and its mouse ligand according to the following steps. Each well of a 96-well plate (Nunc) was coated with an anti-alkaline phosphatase antibody (Thermo Fisher Scientific). After incubation overnight at 4° C., each well was blocked with 1% BlockAce (DS Pharma Biomedical) at room temperature for 1 hour. After washing with 0.05% Tween 20/PBS (Thermo Fisher Scientific) three times, the mouse EphA4 extracellular region-SEAP-His protein obtained by the method of Example 1 was added (final concentration: 10 nM) to each well and incubated at room temperature for 1 hour. After washing three times, ligands and serially diluted antibody A (0, 0.001, 0.003, 0.01, 0.03, 0.1, 0.3, 1,3, 10, 30, 100, 300, and 1000 nM) or a known EphA4 inhibitor KYL peptide (KYLPYWPVLSSL, 0, 0.003, 0.01, 0.03, 0.1, 0.3, 1, 3, 10, 30, and 100 μM, its synthesis was outsourced to Hokkaido System Science) or compound 1 (0, 0.03, 0.1, 0.3, 1,3, 10, 30, 100, 300, and 1000 μM, Formula 1, Matrix Scientific) were added to each well. The ligands used were mouse Ephrin A1-Fc chimera (R&D Systems, final concentration: 20 nM) and mouse Ephrin B2-Fc chimera (R&D Systems, final concentration: 0.6 nM). […] The absorbance at 450 nm was read using a microplate reader (Molecular Devices).

[2] = tested on: mouse Eph receptor (EphA1-A8, A10, EphB1-B4, B6); assay: Selectivity ELISA for mouse Eph receptor family; type: binding; conditions: antibody 10 μg/mL
Text: According to the method described in Example 1, a DNA sequence encoding the signal sequence and the extracellular region of each mouse Eph receptor (EphA1, EphA3, EphA4, EphA5, EphA6, EphA7, EphA8, EphA10, EphB1, EphB2, EphB3, EphB4, and EphB6) was amplified by RT-PCR using tissue-derived total RNA and cloned into a pENTR1A vector (Invitrogen/Life Technologies) having a DNA sequence encoding a human IgG1 Fc region and histidine tag. Next, the DNA sequence encoding the signal sequence and the extracellular region of each mouse Eph receptor (EphA1, EphA3, EphA4, EphA5, EphA6, EphA7, EphA8, EphA10, EphB1, EphB2, EphB3, EphB4, and EphB6), Fc, and histidine tag was transferred to a pcDNA3.1_rfcB vector through LR reaction using Gateway System (Invitrogen/Life Technologies) to construct each mouse Eph receptor extracellular region-Fc-His protein expression vector. […]
Antibody A was evaluated for its binding activity against each mouse Eph receptor according to the following steps.
Each well of a 96-well plate (Nunc) was coated with a donkey anti-human IgG antibody (Jackson ImmunoResearch Laboratories). […] The absorbance at 450 nm was read using a microplate reader (PerkinElmer).

T1 sequence (Q03137 with tags, fused parts or gaps): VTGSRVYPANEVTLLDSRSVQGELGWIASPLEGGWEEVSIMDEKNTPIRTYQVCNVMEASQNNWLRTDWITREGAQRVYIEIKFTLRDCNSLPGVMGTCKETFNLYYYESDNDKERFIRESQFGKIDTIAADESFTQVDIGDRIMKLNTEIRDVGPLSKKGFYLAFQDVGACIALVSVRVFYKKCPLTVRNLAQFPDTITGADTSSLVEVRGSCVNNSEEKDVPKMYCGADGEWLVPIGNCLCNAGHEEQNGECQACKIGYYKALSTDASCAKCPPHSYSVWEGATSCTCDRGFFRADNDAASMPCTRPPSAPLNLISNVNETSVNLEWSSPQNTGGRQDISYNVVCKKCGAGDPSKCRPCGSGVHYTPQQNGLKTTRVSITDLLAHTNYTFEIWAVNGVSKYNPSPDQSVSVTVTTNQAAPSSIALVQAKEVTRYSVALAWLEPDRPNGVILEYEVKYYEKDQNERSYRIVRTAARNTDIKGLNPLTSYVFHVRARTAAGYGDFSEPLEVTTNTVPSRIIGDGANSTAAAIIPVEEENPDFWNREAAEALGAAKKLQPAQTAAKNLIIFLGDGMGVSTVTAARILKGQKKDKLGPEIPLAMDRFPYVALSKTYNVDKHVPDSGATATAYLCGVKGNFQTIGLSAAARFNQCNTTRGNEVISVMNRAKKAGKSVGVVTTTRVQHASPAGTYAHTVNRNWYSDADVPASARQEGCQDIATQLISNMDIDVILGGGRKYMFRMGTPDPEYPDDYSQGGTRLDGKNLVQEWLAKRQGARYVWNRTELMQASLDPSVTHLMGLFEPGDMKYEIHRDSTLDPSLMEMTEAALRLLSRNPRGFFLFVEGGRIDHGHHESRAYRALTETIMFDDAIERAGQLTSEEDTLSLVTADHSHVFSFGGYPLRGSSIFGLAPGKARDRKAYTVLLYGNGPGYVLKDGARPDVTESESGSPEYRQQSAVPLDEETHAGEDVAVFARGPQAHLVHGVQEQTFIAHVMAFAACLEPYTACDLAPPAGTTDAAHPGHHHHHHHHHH

activity relative to KYL peptide (times stronger) [1]: ≥ 1,000 times
B1: antibody A: mouse anti-EphA4 monoclonal antibody, IgG1/κ; heavy chain variable region SEQ ID NO: 11, light chain variable region SEQ ID NO: 13 (antibody, listed as Mus musculus, V domains shown)
VH: QIQLVQSGPELKKPGETVKISCKASGYTFTDYSMHWVKQAPGKGLKWMGWINTETGEPTYADDFKGRFAFSLETSASTAYLQINNLKNEDTATYFCARIPLYYYGSRYWYFDVWGAGTTVTVSS
VL: DIQMTQSPASLSVSVGETVTITCRASENIYRNLAWYQQKQGKSPQLLVYAATNLADGVPSRFSGSGSGTQYSLKINSLQSEDFGSYYCQHFWGTPWTFGGGTKLEIK
binding specificity among mouse Eph receptor family (in words) [2]: specifically had reaction activity only with mouse EphA4
